From article PMC11697113, “The Hsc70 system maintains the synaptic SNARE protein SNAP-25 in an assembly-competent state and delays its aggregation [image fx2.gif]” (The Journal of Biological Chemistry, 2024)

Molecular target: T1, heat shock cognate 70 (Hsc70), human constitutively expressed Hsp70, wild type (human, UniProt P11142 1-646)
T1 construct: Hsc70, the human constitutively expressed Hsp70; also called WT Hsc70; His-Hsc70 (before cleavage); source: E. coli Rosetta (DE3), purified (Ni-NTA, TEV cleavage, second Ni-NTA)
Test: NMR titration; methyl-TROSY (1H-13C HMQC) spectra of Ile δ1-13CH3-labeled Hsc70 (40 μM) without and with unlabeled peptide; 10 mM potassium phosphate pD 7.4, 5 mM DTT, D2O, 25 °C, 600 MHz
Settings: both partners purified

T1 sequence (P11142 whole entry): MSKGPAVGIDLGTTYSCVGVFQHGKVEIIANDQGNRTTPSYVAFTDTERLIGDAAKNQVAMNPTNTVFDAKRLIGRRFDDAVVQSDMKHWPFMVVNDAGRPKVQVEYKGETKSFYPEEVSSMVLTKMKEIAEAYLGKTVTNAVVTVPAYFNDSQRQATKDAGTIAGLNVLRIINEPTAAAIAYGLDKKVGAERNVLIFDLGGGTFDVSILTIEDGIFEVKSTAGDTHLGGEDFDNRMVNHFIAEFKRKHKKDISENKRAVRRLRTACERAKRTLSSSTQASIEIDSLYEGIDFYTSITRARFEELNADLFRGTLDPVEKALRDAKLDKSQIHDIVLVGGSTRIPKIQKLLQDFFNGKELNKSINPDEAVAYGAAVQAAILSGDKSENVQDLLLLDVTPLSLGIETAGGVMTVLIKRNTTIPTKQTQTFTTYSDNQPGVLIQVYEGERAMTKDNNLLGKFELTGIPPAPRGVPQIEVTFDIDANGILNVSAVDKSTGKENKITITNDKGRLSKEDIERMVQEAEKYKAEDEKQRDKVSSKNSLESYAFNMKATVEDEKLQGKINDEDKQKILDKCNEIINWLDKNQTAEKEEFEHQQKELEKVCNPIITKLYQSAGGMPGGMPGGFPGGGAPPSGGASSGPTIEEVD

binding result	Binder
binds	EREQMAISGGFIRR (also called SNC peptide; LOOP-SNC peptide; source: synthetic peptide) [SNCP peptide of SNAP-25 (LOOP-SNC site)]
binds	RRMLQLVEESK (also called SNN peptide; source: synthetic peptide) [SNNP peptide of SNAP-25]
